Measurements as given in the supplement of paper PMC9732359.
± gives the uncertainty stated by the source.

Assay: protein stability index of a GFP-peptide fusion (yeast GPS) (PSI 1-4); higher = more stable; sorted into four equal gates, so the index is relative within each strain
How it was run: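 For each peptide, the protein stability index sums the read frequency in every gate after multiplying it by the gate number. Read frequencies came from plasmids that were PCR-amplified from each gate and Illumina-sequenced, with reads assigned to strains by barcodes. The gates were four equal bins of GFP/Cherry fluorescence ratio applied to mid-log yeast in leucine-free medium carrying a pooled library of tiled 17-residue yeast protein peptides fused downstream of GFP on a Cherry-expressing plasmid.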

Sequence | protein stability index (doa10∆) | protein stability index (pdr5∆) | protein stability index (san1∆) | protein stability index (ubr1∆)
IYATFLNESDCLEACSF [YDL116W/NUP84] | 2.56 ± 0.091 | 2.85 ± 0.087 | 2.6 ± 0.13 | 2.59 ± 0.057
ATSTNPAKSASARGSYL [RPL17A] | 2.25 ± 0.033 | 2.59 ± 0.038 | 2.53 ± 0.038 | 2.66 ± 0.029
MAIEIINDIRDDDIEKQ [YCG1] | – | 3.07 ± 0.16 | 3.19 ± 0.11 | 3.27 ± 0.14
VAAFVNNYPNVELTYSL [BRR2] | 2.61 ± 0.11 | 2.82 ± 0.087 | 2.74 ± 0.082 | 2.9 ± 0.087
SSGDFDDNNNNNNNNNN [GRR1] | 3.11 ± 0.06 | 3.18 ± 0.057 | 3.22 ± 0.063 | 3.04 ± 0.046
VDNIVNKYQYSLKQYAG [SRP68] | 3.09 ± 0.084 | 3.08 ± 0.076 | 2.71 ± 0.068 | 2.99 ± 0.055
ATEVTPQEPKHIQEEEE [RPC19] | 3.24 ± 0.081 | 3.23 ± 0.09 | 3.14 ± 0.056 | 3.37 ± 0.079
SPTSPSYSPTSPSYSPT [RPO21] | 2.74 ± 0.037 | 2.91 ± 0.039 | 2.72 ± 0.036 | 2.82 ± 0.029
DVEDDDKETQLKKRAVS [POP7] | 2.85 ± 0.18 | 2.94 ± 0.096 | 2.41 ± 0.16 | 2.5 ± 0.21
SRRFKNGFQTGSASKAS [RPL37A] | 2.76 ± 0.075 | 2.73 ± 0.087 | 3.26 ± 0.17 | 2.58 ± 0.055
DAYYDLELRNSVMDDIL [PRP8] | 2.98 ± 0.055 | 3.04 ± 0.044 | 2.93 ± 0.049 | 3.09 ± 0.036
EGSKSHPFGHALVAGIE [RPL27A] | 2.73 ± 0.061 | 2.83 ± 0.069 | 2.59 ± 0.071 | 2.76 ± 0.047
KFKDMGIRAPKGALMYG [RPT5] | 3.01 ± 0.13 | 3.46 ± 0.19 | 3.17 ± 0.21 | 3.4 ± 0.18
LPSPESLKTKLNSNIRA [SNF5] | 1.52 ± 0.048 | 1.71 ± 0.043 | 2.15 ± 0.061 | 2.1 ± 0.035
ILRSIPDKLLGVILMFA [COB] | 2.35 ± 0.06 | 1.58 ± 0.046 | 1.65 ± 0.069 | 1.52 ± 0.054
LLDAYSHIESDSTSHNN [MED1] | 2.73 ± 0.051 | 2.93 ± 0.048 | 2.6 ± 0.057 | 2.89 ± 0.038
CSSATVPKHMLDKLDEI [AAR2] | 2.79 ± 0.069 | 3.05 ± 0.088 | 2.98 ± 0.08 | 3.2 ± 0.067
KDLKEILSGFHNAGPVA [RPP1B] | 2.93 ± 0.057 | 2.75 ± 0.062 | 2.62 ± 0.066 | 2.58 ± 0.066
LLLAANTHLGARNVQVH [RPS0A] | 1.93 ± 0.04 | 1.21 ± 0.039 | 1.17 ± 0.061 | 1.13 ± 0.036
CRNINRKHRNAQFAGRA [DIS3] | 2.54 ± 0.11 | 2.78 ± 0.071 | 2.18 ± 0.22 | 2.92 ± 0.086
LTNILRMMGCVKKQKSA [FAS2] | 1.91 ± 0.068 | 2.1 ± 0.078 | 1.81 ± 0.12 | 1.35 ± 0.066
NNWFSLPGDMLAVCDEL [SIN4] | 2.33 ± 0.073 | 2.21 ± 0.079 | 1.73 ± 0.13 | 1.85 ± 0.067
VPVIVKARFVSKLAEEK [RPL28] | 2.71 ± 0.024 | 2.832 ± 0.024 | 2.786 ± 0.018 | 2.861 ± 0.02
KLYTKELSVTGSAINHH [YMR129W/POM152] | 1.22 ± 0.12 | 1.35 ± 0.077 | 1.46 ± 0.23 | 1.49 ± 0.06
DQYIQKQVQISHHLKAD [YGL172W/NUP49] | 2.78 ± 0.076 | 2.71 ± 0.092 | 2.6 ± 0.072 | 3.07 ± 0.057
KVEIKKVNSRDDSFFNE [PRP28] | 3.16 ± 0.082 | 3.31 ± 0.082 | 2.71 ± 0.092 | 3.38 ± 0.12

Sequence | protein stability index (doa10∆) | protein stability index (pdr5∆) | protein stability index (san1∆) | protein stability index (ubr1∆)
TGNNLYDRNSNNNHKDK [SWI1] | 3.03 ± 0.049 | 3.12 ± 0.051 | 2.89 ± 0.06 | 3.12 ± 0.039
TIIFIDELDAIGTKRFD [RPT5] | 2.75 ± 0.069 | 2.33 ± 0.045 | 2.5 ± 0.075 | 2.42 ± 0.059
DRKHVAALRTVKSLVDN [RPL9B] | – | 2.83 ± 0.22 | 2.83 ± 0.14 | –
WKEVLAHNPELERYVKR [RPO31] | 3.6 ± 0.11 | 3.85 ± 0.25 | 3.38 ± 0.1 | 3.45 ± 0.099
ESLTNSNMFDNSADVDM [YGL100W/SEH1] | 3.34 ± 0.085 | 3.57 ± 0.086 | 3.48 ± 0.056 | 3.36 ± 0.093
NEIKQLGSDSSDGHNSE [SRB4] | 2.6 ± 0.072 | 2.8 ± 0.084 | 2.31 ± 0.078 | 3 ± 0.09
TLFCCLLRSRLATRRVL [RPO21] | 1.31 ± 0.068 | 1.22 ± 0.06 | 1.15 ± 0.15 | 1.2 ± 0.05
FVEVERARVTKDLVEIK [RPN5] | 3.37 ± 0.11 | 3.44 ± 0.093 | 3.33 ± 0.066 | 3.56 ± 0.058
TCVAKKGIAKEHAKWGP [RPB3] | 3.31 ± 0.07 | 3.28 ± 0.08 | 3.21 ± 0.07 | 3.16 ± 0.047
HTLMSFAGEAGDTVQFA [PRE1] | 3.01 ± 0.11 | 3.3 ± 0.15 | 2.95 ± 0.095 | 3.22 ± 0.12
ETRNGKVKNQGADVTNT [YCS4] | 3.22 ± 0.1 | 3.45 ± 0.17 | 3.11 ± 0.072 | 3.18 ± 0.076
RLGGDDLRIRIKLDIVV [SNF5] | 1.35 ± 0.16 | 1.33 ± 0.097 | 1.54 ± 0.13 | 1.29 ± 0.099
KRYTSEGTRNRFSYSPP [YMR129W/POM152] | 3.09 ± 0.088 | 3.09 ± 0.063 | 2.92 ± 0.043 | 3.09 ± 0.043
CLKRGWGHPTRMLLNLC [BRR2] | – | 3.14 ± 0.14 | 3.23 ± 0.079 | –
TEQQIEVPEGVTVSIKS [RPL9A] | 2.46 ± 0.069 | 2.3 ± 0.051 | 1.99 ± 0.073 | 2.85 ± 0.043
AENSHTQPKATSTGTTI [PUP1] | 3.17 ± 0.073 | 3.1 ± 0.071 | 3.07 ± 0.06 | 3.26 ± 0.057
DEDIITIFKYLTDKDAF [CDC53] | 2.91 ± 0.14 | 3.15 ± 0.11 | 3.21 ± 0.061 | 3.19 ± 0.059
LLQEGGSLSGNSSSMEE [ESC2] | 2.97 ± 0.11 | 2.67 ± 0.16 | 2.38 ± 0.13 | 2.64 ± 0.096
QFVSKLVDNLNAEVVAG [BRR2] | 2.25 ± 0.042 | 2.25 ± 0.049 | 2.22 ± 0.05 | 2.19 ± 0.041
SPMINSTSSGKVSYAVK [SNM1] | 2.6 ± 0.11 | 3.11 ± 0.065 | 2.32 ± 0.097 | 2.93 ± 0.056
ECLQAYIFFGPIYYQKL [RET1] | 2.54 ± 0.077 | 2.65 ± 0.071 | 2.24 ± 0.1 | 2.72 ± 0.05
APAVELHGNAKKAAEEA [FAS2] | 3.42 ± 0.12 | 3.11 ± 0.14 | 3.1 ± 0.12 | 3.3 ± 0.15
LISSSQDMQLKIWSVKD [RPN14] | 2.7 ± 0.12 | 2.73 ± 0.22 | 2.56 ± 0.17 | 2.59 ± 0.1
VQKQTRAGQRTRFKAVV [RPS2] | 3.04 ± 0.12 | 3.35 ± 0.14 | 3.31 ± 0.15 | 3.23 ± 0.088
EDETVKVAQLRQTGPAK [NSL1] | 3.1 ± 0.16 | 2.83 ± 0.17 | 3.08 ± 0.19 | 3.67 ± 0.11
PEIDNLDDLVVLKKKNI [RRP6] | 2.37 ± 0.067 | 2.15 ± 0.052 | 2.59 ± 0.089 | 2.79 ± 0.066

Sequence | protein stability index (doa10∆) | protein stability index (pdr5∆) | protein stability index (san1∆) | protein stability index (ubr1∆)
ERSKQLNEKFQELRKKV [SMC2] | – | 2.78 ± 0.24 | 3.33 ± 0.097 | 2.81 ± 0.15
TESNELIQKLQNSANNN [IRR1] | 2.93 ± 0.11 | 3.02 ± 0.082 | 3.24 ± 0.053 | 3.09 ± 0.17
NEQAARAANQGALPPDL [CYT1] | 3.18 ± 0.058 | 3.32 ± 0.049 | 2.94 ± 0.053 | 3.03 ± 0.042
DANLLEEGETSRPLKKV [SWI3] | 3.23 ± 0.12 | 3.45 ± 0.16 | 2.95 ± 0.082 | 2.99 ± 0.15
FTNVLTKYSDVLGFLQL [YJL039C/NUP192] | 2.59 ± 0.072 | 2.07 ± 0.071 | 2.85 ± 0.053 | 2.01 ± 0.052
AAQAQAQAQAQAQAQAQ [GAL11] | 2.69 ± 0.045 | 2.9 ± 0.043 | 2.65 ± 0.04 | 2.95 ± 0.068
DSDELGGESMEGPKKCI [SNM1] | 3.38 ± 0.086 | 3.51 ± 0.086 | 3.39 ± 0.076 | 3.4 ± 0.071
PLQGIFHNAVFNSFRRF [QCR8] | 2.67 ± 0.064 | 2.47 ± 0.048 | 2.38 ± 0.054 | 1.96 ± 0.031
RNILHNTVPQVTNFNST [SRB5] | 1.95 ± 0.056 | 2.87 ± 0.05 | 1.92 ± 0.052 | 2.44 ± 0.035
MSLSNKTVKELRQLLKE [RRI1] | 1.95 ± 0.094 | 1.42 ± 0.083 | 1.28 ± 0.11 | 1.85 ± 0.15
SAQQNLASSFVNGFLNL [RPN1] | 2.73 ± 0.094 | 2.54 ± 0.067 | 3.1 ± 0.059 | 2.75 ± 0.068
LSFIQVRIDLGTIDKLQ [RPO31] | 1.37 ± 0.056 | 1.71 ± 0.056 | 2.06 ± 0.077 | 2.67 ± 0.047
MKWSAIPFQTLYRSIES [YJL039C/NUP192] | 1.53 ± 0.046 | 1.91 ± 0.058 | 1.7 ± 0.11 | 1.91 ± 0.031
NGFAPISEVMEDRNQRI [FAS1] | 3.44 ± 0.093 | 3.3 ± 0.06 | 3.42 ± 0.05 | 3.31 ± 0.038
YPRLQDPSRELNVIIDQ [YCS4] | 3.2 ± 0.076 | 3.09 ± 0.08 | 3.34 ± 0.052 | 3.07 ± 0.082
VKVVDAGNKVGQSEASL [RPP0] | – | 3.58 ± 0.22 | – | –
IKAPTVAADGKLVTYIV [YLR335W/NUP2] | 1.61 ± 0.07 | 1.92 ± 0.059 | 1.55 ± 0.084 | 2.16 ± 0.048
TKTILSGTDGSTIGILL [SRP72] | 3 ± 0.064 | 2.81 ± 0.062 | 3.06 ± 0.084 | 3.01 ± 0.065
NNSNNNNIIRIQQLISQ [SNF11] | 2.25 ± 0.06 | 2.39 ± 0.075 | 2.54 ± 0.08 | 2.69 ± 0.046
LEKISSSNKDLEDEKMK [SMC4] | 3.31 ± 0.079 | 3.15 ± 0.093 | 3.23 ± 0.038 | 3.26 ± 0.077
PISKHSKQAIYTRATAS [RPS25A] | 1.86 ± 0.055 | 1.86 ± 0.044 | 1.64 ± 0.08 | 1.81 ± 0.038
NGDNSTTTNTDQNNATM [SNF12] | 2.4 ± 0.069 | 2.2 ± 0.069 | 2.52 ± 0.097 | 1.99 ± 0.051
EKAKEMIRLLGSESDDS [ECM29] | 2.51 ± 0.2 | 2.13 ± 0.11 | – | 1.53 ± 0.14
GVVVLRDREPKEPVALI [RPN2] | 3.5 ± 0.1 | 3.21 ± 0.11 | 3.45 ± 0.076 | 3.41 ± 0.29
GVIIKVEESGEHVILGN [SNU114] | 2.65 ± 0.12 | 2.81 ± 0.086 | 3.2 ± 0.14 | 3 ± 0.073
ETRRKTTTVLKRYANHT [RET1] | 2.14 ± 0.083 | 2.98 ± 0.084 | 3.09 ± 0.045 | 2.94 ± 0.05
